Assays:
GalacTag5_fHbp = target: T1, GalacTag5_fHbp (Neisseria meningitidis serogroup B / …, UniProt E6MV22 32-274); assay: mixed in vitro at room temperature ~16 h, SDS-PAGE
T1 construct: Fusion of a GBS BP1 tag peptide with N. meningitidis fHbp variant 1.1
T1 sequence: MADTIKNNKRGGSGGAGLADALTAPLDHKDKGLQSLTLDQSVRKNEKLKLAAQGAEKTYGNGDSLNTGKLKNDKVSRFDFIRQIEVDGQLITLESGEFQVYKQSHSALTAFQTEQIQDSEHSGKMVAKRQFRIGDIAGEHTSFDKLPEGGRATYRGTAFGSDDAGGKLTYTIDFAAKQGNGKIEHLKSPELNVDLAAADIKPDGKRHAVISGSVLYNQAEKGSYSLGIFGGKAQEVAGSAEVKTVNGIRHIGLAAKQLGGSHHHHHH

GalacTag6_fHbp [1] = target: T2, GalacTag6_fHbp; assay: 1:1 molar mix, room temperature ~16 h, SDS-PAGE
T2 construct: Fusion of a GBS BP-2a tag peptide with N. meningitidis fHbp variant 1.1; also called GalacTag6_ffibp; wt GalacTag
T2 chain: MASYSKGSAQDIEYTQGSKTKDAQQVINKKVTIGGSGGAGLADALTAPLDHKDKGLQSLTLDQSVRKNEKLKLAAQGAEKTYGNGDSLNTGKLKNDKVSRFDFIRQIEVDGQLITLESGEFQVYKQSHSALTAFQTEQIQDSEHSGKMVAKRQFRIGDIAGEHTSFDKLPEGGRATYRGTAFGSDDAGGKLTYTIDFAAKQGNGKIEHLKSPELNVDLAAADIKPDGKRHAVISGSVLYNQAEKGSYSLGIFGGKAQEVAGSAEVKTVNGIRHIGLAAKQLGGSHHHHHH

GalacTag6_fHbp (N636A) = target: T3, GalacTag6_fHbp (N636A); assay: mixed in vitro at room temperature ~16 h, SDS-PAGE (FIG. 3A)
T3 construct: also called variant GalacTag6_fHbp
T3 chain: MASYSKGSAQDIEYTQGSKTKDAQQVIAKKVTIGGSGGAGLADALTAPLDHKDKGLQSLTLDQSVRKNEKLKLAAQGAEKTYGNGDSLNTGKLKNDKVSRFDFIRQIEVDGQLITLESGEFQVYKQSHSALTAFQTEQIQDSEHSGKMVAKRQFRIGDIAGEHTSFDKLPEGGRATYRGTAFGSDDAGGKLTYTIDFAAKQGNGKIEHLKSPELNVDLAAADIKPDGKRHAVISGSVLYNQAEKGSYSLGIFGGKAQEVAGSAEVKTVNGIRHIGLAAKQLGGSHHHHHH

[2] = target: T4, GalacTag6_GBSFerritinLMG14747; assay: SDS-PAGE and HPLC-SEC (FIG. 4)
T4 construct: Self-assembled ferritin nanoparticle displaying GalacTag6; also called GalacTag6 + Ferritin NP Subunit: LMG_14747
T4 chain: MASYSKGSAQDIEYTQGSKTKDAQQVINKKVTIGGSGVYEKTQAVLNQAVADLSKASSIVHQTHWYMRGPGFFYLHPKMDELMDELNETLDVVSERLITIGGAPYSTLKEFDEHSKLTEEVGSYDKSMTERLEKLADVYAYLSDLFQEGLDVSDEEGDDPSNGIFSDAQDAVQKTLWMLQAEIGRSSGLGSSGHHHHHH

GalacTag7_fHbp = target: T5, GalacTag7_fHbp (Neisseria meningitidis serogroup B / …, UniProt E6MV22 32-274); assay: mixed in vitro at room temperature ~16 h, SDS-PAGE
T5 construct: Fusion of a GBS BP-2a tag peptide with N. meningitidis fHbp variant 1.1
T5 sequence: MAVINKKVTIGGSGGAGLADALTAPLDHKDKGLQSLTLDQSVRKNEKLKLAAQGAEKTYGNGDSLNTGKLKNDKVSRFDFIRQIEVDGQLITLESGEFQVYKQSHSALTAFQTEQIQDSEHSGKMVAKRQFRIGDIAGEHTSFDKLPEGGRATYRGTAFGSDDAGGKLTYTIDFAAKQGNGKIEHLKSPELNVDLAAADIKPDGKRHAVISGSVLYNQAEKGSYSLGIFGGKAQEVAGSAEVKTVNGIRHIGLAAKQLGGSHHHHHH

[3] = target: T6, GalacTag6_GBSFerritinDK-PW-092+N-terminal helix; assay: 1:1 mix with the nanoparticle, room temperature ~16 h, SDS-PAGE and HPLC-SEC (FIG. 6)
T6 construct: Self-assembled ferritin nanoparticle displaying GalacTag6; also called GalacTag6_GBSFerritinDK-PW-092+ helix; GalacTag6 + GBS ferritin NP subunit from DK-092-PW w/N-terminal helix
T6 chain: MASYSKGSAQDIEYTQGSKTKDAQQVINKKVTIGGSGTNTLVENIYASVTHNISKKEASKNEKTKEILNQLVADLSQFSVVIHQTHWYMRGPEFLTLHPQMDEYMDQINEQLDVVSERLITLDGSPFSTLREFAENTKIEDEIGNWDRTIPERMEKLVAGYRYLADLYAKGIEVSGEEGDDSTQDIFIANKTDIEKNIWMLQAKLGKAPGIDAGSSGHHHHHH

[4] = target: T7, GalacTag6_GBSFerritinDK-PW-092; assay: 1:1 mix with the nanoparticle, room temperature, SDS-PAGE and HPLC-SEC (FIGS. 5A, 5B)
T7 construct: also called GalacTag6 + GBS ferritin NP subunit from DK-092-PW
T7 chain: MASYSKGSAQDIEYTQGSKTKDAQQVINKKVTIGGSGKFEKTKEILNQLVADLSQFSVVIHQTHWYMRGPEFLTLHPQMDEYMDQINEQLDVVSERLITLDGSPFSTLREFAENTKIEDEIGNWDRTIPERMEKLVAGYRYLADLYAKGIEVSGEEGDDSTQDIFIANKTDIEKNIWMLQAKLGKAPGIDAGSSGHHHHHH

GalacTag6_fHbp [5] = target: T2, GalacTag6_fHbp; assay: mixed in vitro at room temperature ~16 h, SDS-PAGE (FIG. 3A)

B1: GalacDock5 with MHHHHHHS leader (designed binder)
chain: MHHHHHHSNVVTDEPKTDKDVKKLGQDDAGYTIGEEFKWFLKSTIPANLGDYEKFEITDKFADGLTYKSVGKIKIGSKTLNRDEHYTIDEPTVDNQNTLKITFKPEKFKEIAELLKGMTLVKNQDALDKATANTDDAAFLEIPVASTINEKAVLGKAIENTFELQYDHTPDKADNPKPSNPPRKPEVHTGGKRFVKKDSTETQTLGGAEFDLLASDGTAVKWTDALIKANTNKNYIAGEAVTGQPIKLKSHTDGTFEIKGLAYAVDANAEGTAVTYKLKETKAPEGYVIPDKEIEFTVSQTSYNTKPTDITVDSAD
notes: Expressed in E. coli and purified on a HisTrap HP column
B1: no binding (tested: 1:1 molar ratio) (GalacTag5_fHbp).

B2: GalacDock6 with MHHHHHHS leader (designed binder)
chain: MHHHHHHSNTETKPQVDKNFADKELDYANNKKDKGTVSASVGDVKKYHVGTKILKGSDYKKLIWTDSMTKGLTFNNDIAVTLDGATLDATNYKLVADDQGFRLVLTDKGLEAVAKAAKTKDVEIKITYSATLNGSAVVEVLETNDVKLDYGNNPTIENEPKEGIPVDKKITVNKTWAVDGNEVNKADETVDAVFTLQVKDGDKWVNVDSAKATAATSFKHTFENLDNAKTYRVIERVSGYAPEYVSFVNGVVTIKNNKDSNEPTPINPSEPKVVTYGRKFVKTNKDGKERLAGATFLVKKDGKYLARKSGVATDAEKAAVDSTKSALDAAVKAYNDLTKEKQEGQDGKSALATVSEKQKAYNDAFVKANYSYEWVEDKNAKNVVKLISNDKGQFEITGLTEGQYSLEETQAPTGYAKLSGDVSFNVN
notes: It forms a covalent isopeptide bond with GalacTag6; also called GalacDoc6; GlacDock6
B2: binds (GalacTag6_fHbp [1]); no binding (tested: 1:1 molar ratio) (GalacTag6_fHbp (N636A)); binds [2]. B2: no binding (tested: 1:1 molar ratio) (GalacTag7_fHbp); binds [3]; binds [4].

B3: GalacDock6 variant K463A (designed binder)
chain: MHHHHHHSNTETKPQVDKNFADKELDYANNKKDKGTVSASVGDVKKYHVGTKILKGSDYKKLIWTDSMTKGLTFNNDIAVTLDGATLDATNYKLVADDQGFRLVLTDKGLEAVAKAAKTKDVEIKITYSATLNGSAVVEVLETNDVKLDYGNNPTIENEPKEGIPVDKKITVNKTWAVDGNEVNKADETVDAVFTLQVKDGDKWVNVDSAKATAATSFKHTFENLDNAKTYRVIERVSGYAPEYVSFVNGVVTIKNNKDSNEPTPINPSEPKVVTYGRKFVATNKDGKERLAGATFLVKKDGKYLARKSGVATDAEKAAVDSTKSALDAAVKAYNDLTKEKQEGQDGKSALATVSEKQKAYNDAFVKANYSYEWVEDKNAKNVVKLISNDKGQFEITGLTEGQYSLEETQAPTGYAKLSGDVSFNVN
B3: no binding (tested: 1:1 molar ratio) (GalacTag6_fHbp [5]).

B4: GalacDock6 variant E589Q (designed binder)
chain: MHHHHHHSNTETKPQVDKNFADKELDYANNKKDKGTVSASVGDVKKYHVGTKILKGSDYKKLIWTDSMTKGLTFNNDIAVTLDGATLDATNYKLVADDQGFRLVLTDKGLEAVAKAAKTKDVEIKITYSATLNGSAVVEVLETNDVKLDYGNNPTIENEPKEGIPVDKKITVNKTWAVDGNEVNKADETVDAVFTLQVKDGDKWVNVDSAKATAATSFKHTFENLDNAKTYRVIERVSGYAPEYVSFVNGVVTIKNNKDSNEPTPINPSEPKVVTYGRKFVKTNKDGKERLAGATFLVKKDGKYLARKSGVATDAEKAAVDSTKSALDAAVKAYNDLTKEKQEGQDGKSALATVSEKQKAYNDAFVKANYSYEWVEDKNAKNVVKLISNDKGQFEITGLTEGQYSLEQTQAPTGYAKLSGDVSFNVN
B4: no binding (tested: 1:1 molar ratio) (GalacTag6_fHbp [5]).

B5: GalacDock6 variant E589A (designed binder)
chain: MHHHHHHSNTETKPQVDKNFADKELDYANNKKDKGTVSASVGDVKKYHVGTKILKGSDYKKLIWTDSMTKGLTFNNDIAVTLDGATLDATNYKLVADDQGFRLVLTDKGLEAVAKAAKTKDVEIKITYSATLNGSAVVEVLETNDVKLDYGNNPTIENEPKEGIPVDKKITVNKTWAVDGNEVNKADETVDAVFTLQVKDGDKWVNVDSAKATAATSFKHTFENLDNAKTYRVIERVSGYAPEYVSFVNGVVTIKNNKDSNEPTPINPSEPKVVTYGRKFVKTNKDGKERLAGATFLVKKDGKYLARKSGVATDAEKAAVDSTKSALDAAVKAYNDLTKEKQEGQDGKSALATVSEKQKAYNDAFVKANYSYEWVEDKNAKNVVKLISNDKGQFEITGLTEGQYSLEATQAPTGYAKLSGDVSFNVN
B5: no binding (tested: 1:1 molar ratio) (GalacTag6_fHbp [5]).

B6: GalacDock7 with MHHHHHHS leader (designed binder)
chain: MHHHHHHSNTETKPQVDKNFADKELDYANNKKDKGTVSASVGDVKKYHVGTKILKGSDYKKLIWTDSMTKGLTFNNDIAVTLDGATLDATNYKLVADDQGFRLVLTDKGLEAVAKAAKTKDVEIKITYSATLNGSAVVEVLETNDVKLDYGNNPTIENEPKEGIPVDKKITVNKTWAVDGNEVNKADETVDAVFTLQVKDGDKWVNVDSAKATAATSFKHTFENLDNAKTYRVIERVSGYAPEYVSFVNGVVTIKNNKDSNEPTPINPSEPKVVTYGRKFVKTNKDGKERLAGATFLVKKDGKYLARKSGVATDAEKAAVDSTKSALDAAVKAYNDLTKEKQEGQDGKSALATVSEKQKAYNDAFVKANYSYEWVEDKNAKNVVKLISNDKGQFEITGLTEGQYSLEETQAPTGYAKLSGDVSFNVNATSYSKGSAQDIEYTQGSKTKDA
B6: no binding (tested: 1:1 molar ratio) (GalacTag7_fHbp).

— patent US20230250142A1 (GlaxoSmithKline, published 2023)
